Reference: patent US20260167959A1, “APTAZYME-BASED REGULATABLE GENE EXPRESSION SYSTEMS” (REJUVENATE BIO INC, priority 2022, published 2026)

Tested on: Renilla luciferase RNA
Assay: Barcoded aptazyme variant library screen: un-cleaved Renilla luciferase RNA by barcode read counts, HEK293-T cells
Assay type: cell-based
Settings: un-cleaved Renilla luciferase RNA, HEK293-T cells cultured with 1 mM theophylline (ON) over without theophylline (OFF); barcode read counts, triplicate
In short: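 Barcode sequencing of cDNA versus DNA, normalized per aptazyme, gave the un-cleaved Renilla luciferase RNA fraction and fold-change with versus without theophylline (triplicates). Library: T3H48 ribozyme with one of seven theophylline aptamer variants inserted at each position, placed in the Renilla 3′ UTR of a dual-luciferase vector.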

Row | Molecule | Fold change in RNA expression between the ON state and the OFF state [fold]
1 | RA053 (nucleic acid, expressed or natural sequence) DNA: GCGCGTCCTGGATTCGCGGAAACGCGTACATCCAGAGTGATACCAGCATCGTCTTGATGCCCTTGGCAGCACTCTGACGAGTCCCAAATAGGACGAAACGCGC | 2.0
2 | RA054 (nucleic acid, expressed or natural sequence) DNA: GAGTGATACCAGCATCGTCTTGATGCCCTTGGCAGCACTCGCGTCCTGGATTCGCGGAAACGCGTACATCCAGCTGACGAGTCCCAAATAGGACGAAACGCGC | 2.0
3 | RA049 (nucleic acid, expressed or natural sequence) DNA: GCGCGTCCTGGATTCGCGGAAACGCGTACATAGAATACCAGCATCGTCTTGATGCCCTTGGAAGTCTCCAGCTGACGAGTCCCAAATAGGACGAAACGCGC | 2.0
4 | RA005 (nucleic acid, expressed or natural sequence) DNA: GCGCGTCCTGGATTCGCGGAAACCGGAATACCAGCATCGTCTTGATGCCCTTGGAAGTCCGGCGCGTACATCCAGCTGACGAGTCCCAAATAGGACGAAACGCGC | 5.2
5 | RA050 (nucleic acid, expressed or natural sequence) DNA: GCGCGTCCTGGATTCGCGGAAACGCGTACATCCAGCTGACGAGAATACCAGCATCGTCTTGATGCCCTTGGAAGTCTCGCGAGTCCCAAATAGGACGAAACGCGC | 2.0
6 | RA055 (nucleic acid, expressed or natural sequence) DNA: GCGCGTCCTGGATTCGCGGCGAGAATACCAGCATCGTCTTGATGCCCTTGGAAGTCTCGAAACGCGTACATCCAGCTGACGAGTCCCAAATAGGACGAAACGCGC | 2.0
7 | RA057 (nucleic acid, expressed or natural sequence) DNA: GCGCGTCCTGGATTCGCGGAAACGCGTACATCCAGCTGACGAGTCCCAAATAGGACAGAATACCAGCATCGTCTTGATGCCCTTGGAAGTCTGAAACGCGC | 2.0
8 | RA048 (nucleic acid, expressed or natural sequence) DNA: GCGCGTCCTGGATTCGCGGAAACGCGTACATCCAGCTGACGCGAGAATACCAGCATCGTCTTGATGCCCTTGGAAGTCTCGAGTCCCAAATAGGACGAAACGCGC | 2.0
9 | RA056 (nucleic acid, expressed or natural sequence) DNA: GCGCGTCCTGGATTCGCGGAAACGCGTACATCCAGCTGACGAGTCCCGAGAATACCAGCATCGTCTTGATGCCCTTGGAAGTCTCAAATAGGACGAAACGCGC | 2.0
10 | RA051 (nucleic acid, expressed or natural sequence) DNA: GCGCGTCCTGGATTCGCGGAAACGCGTACATCCAGCTGACGAGTCCCAAATAGGACGAAACCGAGAATACCAGCATCGTCTTGATGCCCTTGGAAGTCTCGGCGC | 2.0
11 | RA052 (nucleic acid, expressed or natural sequence) DNA: GCGCGTCCTGGATTCGCGGAAACGCGTACATCCAGCTGACGAGAGTGATACCAGCATCGTCTTGATGCCCTTGGCAGCACTTCCCAAATAGGACGAAACGCGC | 2.0
